{"source": "the supplement of paper PMC10126150", "note": "± gives the standard deviation of the averaged measurements.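 Note: ATP exposure 15 min at 22 °C before imaging.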", "data": [{"test_system": "ATP", "experiment": "switch fluorescence ratio, 500 uM ATP over buffer (Cy3 cluster intensity, sum of 5 cycles each) (fold (ratio)); higher = stronger signal-on switching upon ATP binding; sequences stand for … in TCGTCGGCAGCGTCAGATGTGTATAAGAGACAGTTTTTTTTTTTTTTTTTTTTTTTTT…TC", "conditions": "aptamer strand: ATP DNA aptamer (quencher-CACCTGGGGGAGTATTGCGGAGGAAGG + anchor), 100 nM annealed; ATP concentration: 500 uM", "in_short": "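Imaging in selection buffer was followed by imaging after 15 min with 500 uM ATP at 22 °C, for Cy3-labelled switching-strand clusters annealed to 100 nM quencher-labelled ATP aptamer on a modified Illumina MiSeq flow-cell. Five of these buffer/ATP cycles ran, separated by NaOH stripping and re-annealing. The fluorescence ratio per cluster is summed target-cycle over summed buffer-cycle Cy3 intensity, averaged per switch-domain sequence; clusters outside 100-1000 RFU were removed.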", "values": [{"sequence": "TTTGGGCGGT", "switch fluorescence ratio": "1.04 ± 0.12"}, {"sequence": "TTTGGGCTCC", "switch fluorescence ratio": "0.98 ± 0.018"}, {"sequence": "TTTGGGGCTA", "switch fluorescence ratio": "1.05 ± 0.15"}, {"sequence": "TTTGGGGGAA", "switch fluorescence ratio": "0.994 ± 0.046"}, {"sequence": "TTTGGGGGG", "switch fluorescence ratio": "1.05 ± 0.046"}, {"sequence": "TTTGGGGTAG", "switch fluorescence ratio": "0.977 ± 0.015"}, {"sequence": "TTTGGGGTCA", "switch fluorescence ratio": "1 ± 0.016"}, {"sequence": "TTTGGGGTG", "switch fluorescence ratio": "1.04 ± 0.022"}, {"sequence": "TTTGGGTAAA", "switch fluorescence ratio": "1.02 ± 0.032"}, {"sequence": "TTTGGGTATC", "switch fluorescence ratio": "0.982 ± 0.041"}, {"sequence": "TTTGGGTGCG", "switch fluorescence ratio": "0.998 ± 0.04"}, {"sequence": "TTTGGTAGCT", "switch fluorescence ratio": "0.9596 ± 0.0037"}, {"sequence": "TTTGGTATGA", "switch fluorescence ratio": "0.9736 ± 0.0021"}, {"sequence": "TTTGGTATGG", "switch fluorescence ratio": "0.997 ± 0.015"}, {"sequence": "TTTGGTATGT", "switch fluorescence ratio": "1.03 ± 0.057"}, {"sequence": "TTTGGTATTT", "switch fluorescence ratio": "0.984 ± 0.025"}, {"sequence": "TTTGGTCGTG", "switch fluorescence ratio": "1.042 ± 0.0036"}, {"sequence": "TTTGGTGACT", "switch fluorescence ratio": "1.018 ± 0.0063"}, {"sequence": "TTTGGTGATT", "switch fluorescence ratio": "0.982 ± 0.025"}, {"sequence": "TTTGGTGCGG", "switch fluorescence ratio": "0.985 ± 0.01"}, {"sequence": "TTTGGTGGCA", "switch fluorescence ratio": "0.9992 ± 0.0099"}, {"sequence": "TTTGGTGGGA", "switch fluorescence ratio": "0.972 ± 0.026"}, {"sequence": "TTTGGTGGGT", "switch fluorescence ratio": "0.975 ± 0.012"}, {"sequence": "TTTGGTGGTT", "switch fluorescence ratio": "1.03 ± 0.059"}, {"sequence": "TTTGGTGTTG", "switch fluorescence ratio": "0.987 ± 0.022"}, {"sequence": "TTTGGTTCTC", "switch fluorescence ratio": "0.977 ± 0.012"}, {"sequence": "TTTGGTTGT", "switch fluorescence ratio": "0.972 ± 0.013"}, {"sequence": "TTTGGTTGTG", "switch fluorescence ratio": "0.986 ± 0.018"}, {"sequence": "TTTGGTTTAT", "switch fluorescence ratio": "0.982 ± 0.04"}, {"sequence": "TTTGGTTTCC", "switch fluorescence ratio": "1.01 ± 0.053"}, {"sequence": "TTTGGTTTGC", "switch fluorescence ratio": "0.992 ± 0.0039"}, {"sequence": "TTTGTAAATT", "switch fluorescence ratio": "1 ± 0.018"}, {"sequence": "TTTGTAACAC", "switch fluorescence ratio": "1.25 ± 0.36"}, {"sequence": "TTTGTAATGG", "switch fluorescence ratio": "1.08 ± 0.14"}, {"sequence": "TTTGTAGAGC", "switch fluorescence ratio": "1.05 ± 0.063"}, {"sequence": "TTTGTAGCAC", "switch fluorescence ratio": "1.31 ± 0.072"}, {"sequence": "TTTGTAGGCA", "switch fluorescence ratio": "0.989 ± 0.011"}, {"sequence": "TTTGTAGTTT", "switch fluorescence ratio": "1.03 ± 0.055"}, {"sequence": "TTTGTATGAG", "switch fluorescence ratio": "1.03 ± 0.025"}, {"sequence": "TTTGTATGGT", "switch fluorescence ratio": "0.976 ± 0.011"}, {"sequence": "TTTGTATTAG", "switch fluorescence ratio": "1 ± 0.028"}, {"sequence": "TTTGTATTCG", "switch fluorescence ratio": "1.004 ± 0.0064"}, {"sequence": "TTTGTCAAGG", "switch fluorescence ratio": "1.02 ± 0.015"}, {"sequence": "TTTGTCAGAT", "switch fluorescence ratio": "0.98 ± 0.013"}, {"sequence": "TTTGTCAGGT", "switch fluorescence ratio": "0.9692 ± 0.0021"}, {"sequence": "TTTGTCCCGT", "switch fluorescence ratio": "0.98 ± 0.026"}, {"sequence": "TTTGTCGCTG", "switch fluorescence ratio": "1.01 ± 0.038"}, {"sequence": "TTTGTCTGAC", "switch fluorescence ratio": "0.9946 ± 0.0028"}, {"sequence": "TTTGTCTTGG", "switch fluorescence ratio": "0.972 ± 0.031"}, {"sequence": "TTTGTGAAAG", "switch fluorescence ratio": "1.008 ± 0.006"}, {"sequence": "TTTGTGAGGT", "switch fluorescence ratio": "1.01 ± 0.034"}, {"sequence": "TTTGTGATG", "switch fluorescence ratio": "0.959 ± 0.027"}, {"sequence": "TTTGTGATGG", "switch fluorescence ratio": "0.954 ± 0.026"}, {"sequence": "TTTGTGCCTT", "switch fluorescence ratio": "1.1 ± 0.12"}, {"sequence": "TTTGTGGGGC", "switch fluorescence ratio": "1.01 ± 0.042"}, {"sequence": "TTTGTGGTAG", "switch fluorescence ratio": "0.984 ± 0.011"}, {"sequence": "TTTGTGGTCC", "switch fluorescence ratio": "0.98 ± 0.039"}, {"sequence": "TTTGTGTAGC", "switch fluorescence ratio": "1 ± 0.038"}, {"sequence": "TTTGTGTATA", "switch fluorescence ratio": "0.976 ± 0.057"}, {"sequence": "TTTGTGTGTT", "switch fluorescence ratio": "1.02 ± 0.024"}, {"sequence": "TTTGTGTTAG", "switch fluorescence ratio": "0.9983 ± 0.0082"}, {"sequence": "TTTGTGTTTG", "switch fluorescence ratio": "0.999 ± 0.016"}, {"sequence": "TTTGTTAATA", "switch fluorescence ratio": "1.02 ± 0.014"}, {"sequence": "TTTGTTACAG", "switch fluorescence ratio": "1 ± 0.031"}, {"sequence": "TTTGTTACTT", "switch fluorescence ratio": "1.01 ± 0.021"}, {"sequence": "TTTGTTATTT", "switch fluorescence ratio": "1.01 ± 0.023"}, {"sequence": "TTTGTTCACG", "switch fluorescence ratio": "0.991 ± 0.01"}, {"sequence": "TTTGTTCCTC", "switch fluorescence ratio": "1.103 ± 0.005"}, {"sequence": "TTTGTTCGGC", "switch fluorescence ratio": "1 ± 0.033"}, {"sequence": "TTTGTTGTAC", "switch fluorescence ratio": "1.06 ± 0.058"}, {"sequence": "TTTGTTGTTT", "switch fluorescence ratio": "0.986 ± 0.013"}, {"sequence": "TTTGTTTCT", "switch fluorescence ratio": "0.968 ± 0.01"}, {"sequence": "TTTGTTTGCT", "switch fluorescence ratio": "0.989 ± 0.025"}, {"sequence": "TTTGTTTTC", "switch fluorescence ratio": "1.02 ± 0.018"}, {"sequence": "TTTGTTTTCT", "switch fluorescence ratio": "1.01 ± 0.032"}, {"sequence": "TTTTAAAAAA", "switch fluorescence ratio": "1 ± 0.026"}, {"sequence": "TTTTAAACGT", "switch fluorescence ratio": "1.04 ± 0.039"}, {"sequence": "TTTTAAAGAT", "switch fluorescence ratio": "0.977 ± 0.021"}, {"sequence": "TTTTAAAGGG", "switch fluorescence ratio": "0.993 ± 0.045"}, {"sequence": "TTTTAAAGTC", "switch fluorescence ratio": "1.02 ± 0.03"}, {"sequence": "TTTTAACAGG", "switch fluorescence ratio": "1.02 ± 0.08"}, {"sequence": "TTTTAACTCT", "switch fluorescence ratio": "1.05 ± 0.015"}, {"sequence": "TTTTAACTGT", "switch fluorescence ratio": "1.01 ± 0.038"}, {"sequence": "TTTTAAGGAA", "switch fluorescence ratio": "1.04 ± 0.071"}, {"sequence": "TTTTAAGGGA", "switch fluorescence ratio": "0.998 ± 0.014"}, {"sequence": "TTTTAAGGGT", "switch fluorescence ratio": "0.999 ± 0.036"}, {"sequence": "TTTTAATTCA", "switch fluorescence ratio": "1 ± 0.015"}, {"sequence": "TTTTACCACT", "switch fluorescence ratio": "1.0422 ± 0.00058"}, {"sequence": "TTTTACCCTT", "switch fluorescence ratio": "1.04 ± 0.04"}, {"sequence": "TTTTACGCAG", "switch fluorescence ratio": "1.03 ± 0.044"}, {"sequence": "TTTTACGGGG", "switch fluorescence ratio": "1.02 ± 0.03"}, {"sequence": "TTTTACTGAG", "switch fluorescence ratio": "1.04 ± 0.025"}, {"sequence": "TTTTACTTAC", "switch fluorescence ratio": "1.25 ± 0.059"}, {"sequence": "TTTTAGAATT", "switch fluorescence ratio": "0.996 ± 0.013"}, {"sequence": "TTTTAGACTG", "switch fluorescence ratio": "1.05 ± 0.039"}, {"sequence": "TTTTAGAGTT", "switch fluorescence ratio": "0.982 ± 0.013"}, {"sequence": "TTTTAGCAGA", "switch fluorescence ratio": "1.06 ± 0.016"}, {"sequence": "TTTTAGCTTC", "switch fluorescence ratio": "1.03 ± 0.017"}, {"sequence": "TTTTAGGAAT", "switch fluorescence ratio": "0.997 ± 0.027"}, {"sequence": "TTTTAGGAGT", "switch fluorescence ratio": "0.989 ± 0.037"}]}]}
